B1: library; numbered along this chain (parent)
chain: MNIQIGELAKRTACPVVTIRFYEQEGLLPPPGRSRGNFRLYGEEHVERLQFIRHCRSLDMPLSDVRTLLSYRKRPDQDCGEVNMLLDEHIRQVESRIGALLELKHHLVELREACSGARPAQSCGILQGLSDCVCDTRGTTAHPSD

Data set [1] covers variants of B1. Briefly: sfGFP reporter fluorescence (15 h) (µM FITC); higher = higher leak. Conditions: library round: Round 0; ligand: none. The method in brief: (§1)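 With 1 µM lead chloride, 30 µM zinc acetate or no metal present, 1 μL Echo-assembled reactions were incubated 15 hr at 30 °C. They contained BL21 Star (DE3) PANOx-SP extract, 30 μg/mL GamS, the pPbrR-sfGFP reporter plasmid and PCR-made linear PbrR templates Echo-normalized to 5 nM. Endpoint sfGFP fluorescence was read on a Synergy Neo2 at 485/528 nm against FITC standards in 50 mM sodium borate pH 8.5. Results are expressed as µM FITC.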

Variants of B1 are the subject of data set [2]. Briefly: sfGFP reporter fluorescence (15 h) (µM FITC); higher = stronger transcriptional activation. Conditions: library round: Round 0. The essentials:
as §1

± gives the standard deviation of the averaged measurements.

As for MNIQIGELAKRTACPVVTIRFYEQEGLLPPPGRSRGNFRLYGEEHVERLQFIRHCRSLDMPLSDVRTLLSYAKRPDQDCGEVNMLLDEHIRQVESRIGALLELKHHLVELREACSGARPAQSCGILQGLSDCVCDTRGTTAHPSD, the sfGFP reporter fluorescence in data set [1] is 0.06175 ± 0.00026; in data set [2] (ligand: 1 µM Pb), 0.0687 ± 0.008; in data set [2] (ligand: 30 µM Zn) it was 0.3731 ± 0.0026.

As for MNIQIGELAKRTACPVVTIRFYEQEGLLPPPGRSRGNFRLYGEEHVERLQFIRHCRSLDMPLSDVRTYLSYRKRPDQDCGEVNMLLDEHIRQVESRIGALLELKHHLVELREACSGARPAQSCGILQGLSDCVCDTRGTTAHPSD, the values for the sfGFP reporter fluorescence in data set [1], in data set [2] (ligand: 1 µM Pb) and in data set [2] (ligand: 30 µM Zn) were 0.0634, 0.0773 ± 0.0031 and 0.908 ± 0.05, respectively.

In the case of MNIQIGELAKRTACPVVTIRFYEQEGLLPPPGRSRGNFRLYGEEHVERLQFIRHCRSLDMPLSDVRTWLSYRKRPDQDCGEVNMLLDEHIRQVESRIGALLELKHHLVELREACSGARPAQSCGILQGLSDCVCDTRGTTAHPSD, the sfGFP reporter fluorescence in data set [1] is 0.0627 ± 0.0026; in data set [2] (ligand: 1 µM Pb), 0.06157 ± 0.00052; in data set [2] (ligand: 30 µM Zn) it was 0.111 ± 0.0018.

As for MNIQIGELAKRTACPVVTIRFYEQEGLLPPPGRSRGNFRLYGEEHVERLQFIRHCRSLDMPLSDVRTVLSYRKRPDQDCGEVNMLLDEHIRQVESRIGALLELKHHLVELREACSGARPAQSCGILQGLSDCVCDTRGTTAHPSD, the sfGFP reporter fluorescence in data set [1] worked out at 0.0603 ± 0.0018; in data set [2] (ligand: 1 µM Pb) it was 0.0632 ± 0.0013; in data set [2] (ligand: 30 µM Zn), 0.384 ± 0.035.

As for MNIQIGELAKRTACPVVTIRFYEQEGLLPPPGRSRGNFRLYGEEHVERLQFIRHCRSLDMPLSDVRTLLSARKRPDQDCGEVNMLLDEHIRQVESRIGALLELKHHLVELREACSGARPAQSCGILQGLSDCVCDTRGTTAHPSD, the sfGFP reporter fluorescence in data set [1] was 0.05974 ± 0.00052; in data set [2] (ligand: 1 µM Pb) it was 0.0575; in data set [2] (ligand: 30 µM Zn), 0.22 ± 0.0036.

On to MNIQIGELAKRTACPVVTIRFYEQEGLLPPPGRSRGNFRLYGEEHVERLQFIRHCRSLDMPLSDVRTLASYRKRPDQDCGEVNMLLDEHIRQVESRIGALLELKHHLVELREACSGARPAQSCGILQGLSDCVCDTRGTTAHPSD, for which the sfGFP reporter fluorescence amounted to 0.0629 ± 0.0018 in data set [1], 0.0627 ± 0.0021 in data set [2] (ligand: 1 µM Pb) and 0.2252 ± 0.0013 in data set [2] (ligand: 30 µM Zn).

With MNIQIGELAKRTACPVVTIRFYEQEGLLPPPGRSRGNFRLYGEEHVERLQFIRHCRSLDMPLSDVRTLLAYRKRPDQDCGEVNMLLDEHIRQVESRIGALLELKHHLVELREACSGARPAQSCGILQGLSDCVCDTRGTTAHPSD, the sfGFP reporter fluorescence came out at 0.0678 ± 0.0052 in data set [1], 0.072 ± 0.0054 in data set [2] (ligand: 1 µM Pb) and 0.281 ± 0.061 in data set [2] (ligand: 30 µM Zn).

Values taken from the supplement of paper PMC12783771.
